From US12099068B2, “Biomarkers for graft-versus-host disease” (Incyte Corporation, priority 2018, dated 2024)

Test system: plasma proteins
Assay: Plasma proteins modulated between baseline and day 28 in responders (CR, VGPR, PR; n = 19), Example 6 (Table 13)
Assay type: in vivo, human
Details: plasma protein (OLINK NPX); responders (CR, VGPR, PR; n = 19); itacitinib 200 mg or 300 mg QD with corticosteroids; day 28 vs baseline
Procedure, shortened: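 Longitudinal comparison, day 28 versus baseline, with steroid-naive (N=10) and steroid-refractory (N=18) patients combined. Proteins measured by OLINK proximity extension, log2 normalized protein expression. Differences tested by t tests, ANOVA, Pearson correlation, P<0.05 significant.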

Row | Molecule | Fold Change, Decreased Expression from Baseline to Day 28
1 | LYN (protein, UniProt P07948 2-512, looked up) Tyrosine-protein kinase Lyn: GCIKSKGKDSLSDDGVDLKTQPVRNTERTIYVRDPTSNKQQRPVPESQLLPGQRFQTKDPEEQGDIVVALYPYDGIHPDDLSFKKGEKMKVLEEHGEWWKAKSLLTKKEGFIPSNYVAKLNTLETEEWFFKDITRKDAERQLLAPGNSAGAFLIRESETLKGSFSLSVRDFDPVHGDVIKHYKIRSLDNGGYYISPRITFPCISDMIKHYQKQADGLCRRLEKACISPKPQKPWDKDAWEIPRESIKLVKRLGAGQFGEVWMGYYNNSTKVAVKTLKPGTMSVQAFLEEANLMKTLQHDKLVRLYAVVTREEPIYIITEYMAKGSLLDFLKSDEGGKVLLPKLIDFSAQIAEGMAYIERKNYIHRDLRAANVLVSESLMCKIADFGLARVIEDNEYTAREGAKFPIKWTAPEAINFGCFTIKSDVWSFGILLYEIVTYGKIPYPGRTNADVMTALSQGYRMPRVENCPDELYDIMKMCWKEKAEERPTFDYLQSVLDDFYTATEGQYQQQP | −1.2337
2 | APBB1IP (protein, UniProt Q7Z5R6 1-666, looked up) Amyloid beta A4 precursor …: MGESSEDIDQMFSTLLGEMDLLTQSLGVDTLPPPDPNPPRAEFNYSVGFKDLNESLNALEDQDLDALMADLVADISEAEQRTIQAQKESLQNQHHSASLQASIFSGAASLGYGTNVAATGISQYEDDLPPPPADPVLDLPLPPPPPEPLSQEEEEAQAKADKIKLALEKLKEAKVKKLVVKVHMNDNSTKSLMVDERQLARDVLDNLFEKTHCDCNVDWCLYEIYPELQIERFFEDHENVVEVLSDWTRDTENKILFLEKEEKYAVFKNPQNFYLDNRGKKESKETNEKMNAKNKESLLEESFCGTSIIVPELEGALYLKEDGKKSWKRRYFLLRASGIYYVPKGKTKTSRDLACFIQFENVNIYYGTQHKMKYKAPTDYCFVLKHPQIQKESQYIKYLCCDDTRTLNQWVMGIRIAKYGKTLYDNYQRAVAKAGLASRWTNLGTVNAAAPAQPSTGPKTGTTQPNGQIPQATHSVSAVLQEAQRHAETSKDKKPALGNHHDPAVPRAPHAPKSSLPPPPPVRRSSDTSGSPATPLKAKGTGGGGLPAPPDDFLPPPPPPPPLDDPELPPPPPDFMEPPPDFVPPPPPSYAGIAGSELPPPPPPPPAPAPAPVPDSARPPPAVAKRPPVPPKRQENPGHPGGAGGGEQDFMSDLMKALQKKRGNVS | −1.4021
3 | ICAM1 (protein, UniProt P05362 28-532, looked up) Intercellular adhesion …: QTSVSPSKVILPRGGSVLVTCSTSCDQPKLLGIETPLPKKELLLPGNNRKVYELSNVQEDSQPMCYSNCPDGQSTAKTFLTVYWTPERVELAPLPSWQPVGKNLTLRCQVEGGAPRANLTVVLLRGEKELKREPAVGEPAEVTTTVLVRRDHHGANFSCRTELDLRPQGLELFENTSAPYQLQTFVLPATPPQLVSPRVLEVDTQGTVVCSLDGLFPVSEAQVHLALGDQRLNPTVTYGNDSFSAKASVSVTAEDEGTQRLTCAVILGNQSQETLQTVTIYSFPAPNVILTKPEVSEGTEVTVKCEAHPRAKVTLNGVPAQPLGPRAQLLLKATPEDNGRSFSCSATLEVAGQLIHKNQTRELRVLYGPRLDERDCPGNWTWPENSQQTPMCQAWGNPLPELKCLKDGTFPLPIGESVTVTRDLEGTYLCRARSTQGEVTRKVTVNVLSPRYEIVIITVVAAAVIMGTAGLSTYLYNRQRKIKKYRLQQAQKGTPMKPNTQATPP | −1.354
4 | ARHGAP1 (protein, UniProt Q07960 1-439, looked up) Rho GTPase-activating protein …: MDPLSELQDDLTLDDTSEALNQLKLASIDEKNWPSDEMPDFPKSDDSKSSSPELVTHLKWDDPYYDIARHQIVEVAGDDKYGRKIIVFSACRMPPSHQLDHSKLLGYLKHTLDQYVESDYTLLYLHHGLTSDNKPSLSWLRDAYREFDRKYKKNIKALYIVHPTMFIKTLLILFKPLISFKFGQKIFYVNYLSELSEHVKLEQLGIPRQVLKYDDFLKSTQKSPATAPKPMPPRPPLPNQQFGVSLQHLQEKNPEQEPIPIVLRETVAYLQAHALTTEGIFRRSANTQVVREVQQKYNMGLPVDFDQYNELHLPAVILKTFLRELPEPLLTFDLYPHVVGFLNIDESQRVPATLQVLQTLPEENYQVLRFLTAFLVQISAHSDQNKMTNTNLAVVFGPNLLWAKDAAITLKAINPINTFTKFLLDHQGELFPSPDPSGL | −1.6039
5 | CLM-1 (protein, UniProt Q8TDQ1 20-290, looked up) CMRF35-like molecule 1: TQITGPTTVNGLERGSLTVQCVYRSGWETYLKWWCRGAIWRDCKILVKTSGSEQEVKRDRVSIKDNQKNRTFTVTMEDLMKTDADTYWCGIEKTGNDLGVTVQVTIDPAPVTQEETSSSPTLTGHHLDNRHKLLKLSVLLPLIFTILLLLLVAASLLAWRMMKYQQKAAGMSPEQVLQPLEGDLCYADLTLQLAGTSPQKATTKLSSAQVDQVEVEYVTMASLPKEDISYASLTLGAEDQEPTYCNMGHLSSHLPGRGPEEPTEYSTISRP | −1.3921
6 | PRKCQ (protein, UniProt Q04759 1-706, looked up) Protein kinase C theta type: MSPFLRIGLSNFDCGSCQSCQGEAVNPYCAVLVKEYVESENGQMYIQKKPTMYPPWDSTFDAHINKGRVMQIIVKGKNVDLISETTVELYSLAERCRKNNGKTEIWLELKPQGRMLMNARYFLEMSDTKDMNEFETEGFFALHQRRGAIKQAKVHHVKCHEFTATFFPQPTFCSVCHEFVWGLNKQGYQCRQCNAAIHKKCIDKVIAKCTGSAINSRETMFHKERFKIDMPHRFKVYNYKSPTFCEHCGTLLWGLARQGLKCDACGMNVHHRCQTKVANLCGINQKLMAEALAMIESTQQARCLRDTEQIFREGPVEIGLPCSIKNEARPPCLPTPGKREPQGISWESPLDEVDKMCHLPEPELNKERPSLQIKLKIEDFILHKMLGKGSFGKVFLAEFKKTNQFFAIKALKKDVVLMDDDVECTMVEKRVLSLAWEHPFLTHMFCTFQTKENLFFVMEYLNGGDLMYHIQSCHKFDLSRATFYAAEIILGLQFLHSKGIVYRDLKLDNILLDKDGHIKIADFGMCKENMLGDAKTNTFCGTPDYIAPEILLGQKYNHSVDWWSFGVLLYEMLIGQSPFHGQDEEELFHSIRMDNPFYPRWLEKEAKDLLVKLFVREPEKRLGVRGDIRQHPLFREINWEELERKEIDPPFRPKVKSPFDCSNFDKEFLNEKPRLSFADRALINSMDQNMFRNFSFMNPGMERLIS | −1.3251
7 | DAB2 (protein, UniProt P98082 2-770, looked up) Disabled homolog 2: SNEVETSATNGQPDQQAAPKAPSKKEKKKGPEKTDEYLLARFKGDGVKYKAKLIGIDDVPDARGDKMSQDSMMKLKGMAAAGRSQGQHKQRIWVNISLSGIKIIDEKTGVIEHEHPVNKISFIARDVTDNRAFGYVCGGEGQHQFFAIKTGQQAEPLVVDLKDLFQVIYNVKKKEEEKKKIEEASKAVENGSEALMILDDQTNKLKSGVDQMDLFGDMSTPPDLNSPTESKDILLVDLNSEIDTNQNSLRENPFLTNGITSCSLPRPTPQASFLPENAFSANLNFFPTPNPDPFRDDPFTQPDQSTPSSFDSLKSPDQKKENSSSSSTPLSNGPLNGDVDYFGQQFDQISNRTGKQEAQAGPWPFSSSQTQPAVRTQNGVSEREQNGFSVKSSPNPFVGSPPKGLSIQNGVKQDLESSVQSSPHDSIAIIPPPQSTKPGRGRRTAKSSANDLLASDIFAPPVSEPSGQASPTGQPTALQPNPLDLFKTSAPAPVGPLVGLGGVTVTLPQAGPWNTASLVFNQSPSMAPGAMMGGQPSGFSQPVIFGTSPAVSGWNQPSPFAASTPPPVPVVWGPSASVAPNAWSTTSPLGNPFQSNIFPAPAVSTQPPSMHSSLLVTPPQPPPRAGPPKDISSDAFTALDPLGDKEIKDVKEMFKDFQLRQPPAVPARKGEQTSSGTLSAFASYFNSKVGIPQENADHDDFDANQLLNKINEPPKPAPRQVSLPVTKSTDNAFENPFFKDSFGSSQASVASSQPVSSEMYRDPFGNPFA | −1.2548
